Assay results taken from article PMC2615553 (Immunity, 2008).

Biological target: T1, plexinD1-Fc (ectodomain of mouse plexinD1 as C-terminal Fc-fusion construct) (mouse, UniProt Q3UH93 49-1271)
T1 sequence (looked up): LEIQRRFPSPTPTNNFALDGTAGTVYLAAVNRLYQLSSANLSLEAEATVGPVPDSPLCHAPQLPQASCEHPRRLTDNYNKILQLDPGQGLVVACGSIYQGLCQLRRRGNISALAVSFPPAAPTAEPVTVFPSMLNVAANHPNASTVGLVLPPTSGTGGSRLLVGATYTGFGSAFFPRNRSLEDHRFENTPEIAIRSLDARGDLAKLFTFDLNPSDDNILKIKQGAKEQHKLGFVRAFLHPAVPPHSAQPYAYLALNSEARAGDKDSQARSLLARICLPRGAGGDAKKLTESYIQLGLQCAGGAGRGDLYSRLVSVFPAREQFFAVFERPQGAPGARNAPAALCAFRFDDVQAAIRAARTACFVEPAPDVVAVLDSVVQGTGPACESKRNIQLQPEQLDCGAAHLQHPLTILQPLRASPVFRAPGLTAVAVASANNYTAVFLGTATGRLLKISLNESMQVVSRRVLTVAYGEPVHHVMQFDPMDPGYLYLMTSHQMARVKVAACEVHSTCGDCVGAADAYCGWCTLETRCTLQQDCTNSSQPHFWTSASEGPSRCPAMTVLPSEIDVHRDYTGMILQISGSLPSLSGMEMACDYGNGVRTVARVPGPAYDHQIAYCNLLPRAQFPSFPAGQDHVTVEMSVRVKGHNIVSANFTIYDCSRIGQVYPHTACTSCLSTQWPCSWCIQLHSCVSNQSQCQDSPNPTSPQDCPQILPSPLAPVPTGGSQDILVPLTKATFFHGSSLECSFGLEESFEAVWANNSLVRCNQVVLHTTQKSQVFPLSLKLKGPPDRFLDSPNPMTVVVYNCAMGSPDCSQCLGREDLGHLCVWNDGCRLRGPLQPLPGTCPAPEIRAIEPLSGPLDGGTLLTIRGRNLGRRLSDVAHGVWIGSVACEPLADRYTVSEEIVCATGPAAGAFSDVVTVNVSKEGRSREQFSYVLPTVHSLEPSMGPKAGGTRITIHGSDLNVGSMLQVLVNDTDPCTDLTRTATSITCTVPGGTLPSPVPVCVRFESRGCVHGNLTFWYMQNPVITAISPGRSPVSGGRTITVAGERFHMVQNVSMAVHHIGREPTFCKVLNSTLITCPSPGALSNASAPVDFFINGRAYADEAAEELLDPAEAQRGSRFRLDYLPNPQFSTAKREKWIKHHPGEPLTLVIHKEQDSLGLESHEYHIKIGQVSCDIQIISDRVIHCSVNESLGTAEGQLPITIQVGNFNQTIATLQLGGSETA
Test: SPR

Kd: 43.4 nM
B1: sema3E-Fc (semaphorin 3E as C-terminal Fc-fusion construct) (Fc fusion, UniProt P70275 26-775, looked up)
chain: ANPSYPRLRLSHKELLELNRTSIFQSPLGFLDLHTMLLDEYQERLFVGGRDLVYSLNLERVSDGYREIYWPSTAVKVEECIMKGKDANECANYIRVLHHYNRTHLLTCATGAFDPHCAFIRVGHHSEEPLFHLESHRSERGRGRCPFDPNSSFVSTLVGNELFAGLYSDYWGRDSAIFRSMGKLGHIRTEHDDERLLKEPKFVGSYMIPDNEDRDDNKMYFFFTEKALEAENNAHTIYTRVGRLCVNDMGGQRILVNKWSTFLKARLVCSVPGMNGIDTYFDELEDVFLLPTRDPKNPVIFGLFNTTSNIFRGHAVCVYHMSSIREAFNGPYAHKEGPEYHWSLYEGKVPYPRPGSCASKVNGGKYGTTKDYPDDAIRFARMHPLMYQPIKPVHKKPILVKTDGKYNLRQLAVDRVEAEDGQYDVLFIGTDTGIVLKVITIYNQETEWMEEVILEELQIFKDPAPIISMEISSKRQQLYIGSASAVAQVRFHHCDMYGSACADCCLARDPYCAWDGISCSRYYPTGAHAKRRFRRQDVRHGNAAQQCFGQQFVGDALDRTEERLAYGIESNSTLLECTPRSLQAKVIWFVQKGRDVRKEEVKTDDRVVKMDLGLLFLRVRKSDAGTYFCQTVEHNFVHTVRKITLEVVEEHKVEGMFHKDHEEERHHKMPCPPLSGMSQGTKPWYKEFLQLIGYSNFQRVEEYCEKVWCTDKKRKKLKMSPSKWKYANPQEKRLRSKAEHFRLPRHTLLS
